Measurements: patent publication WO2006121159A1 (dated 2006)

B1: MS705/HV0LV9 antibody (anti-CD10 CDR-grafted antibody obtained from the HV0LV9MS705 strain, FERM BP-10099) (antibody, V domains shown)
VH: EVQLVESGGGVVQPGRSLRLSCAASGFTFSSFGMHWVRQAPGKGLEWVAYISGGSYTIYYADTVKGRFTISRDNSKNTLYLQMNSLRAEDTAVYYCARSYGNFWYFDVWGQGTTVTVSS
VL: DIVMTQSPDSLAVSLGERATIACSVSSSISSSNLHWYQQKPGQSPKPWIYGTSNLASGVPVRFSGSGSGTSYFLTISSLQAEDVATYYCQQWSSYPLTFGQGTKVEIKR
notes: Whole antibody expressed from pKANTEX3061HV0LV9 (human constant regions)
B2: MS705/HV0LV0 antibody (anti-CD10 CDR-grafted antibody obtained from the HV0LV0MS705 strain) (antibody, V domains shown)
VH: EVQLVESGGGVVQPGRSLRLSCAASGFTFSSFGMHWVRQAPGKGLEWVAYISGGSYTIYYADTVKGRFTISRDNSKNTLYLQMNSLRAEDTAVYYCARSYGNFWYFDVWGQGTTVTVSS
VL: DIVMTQSPDSLAVSLGERATINCSVSSSISSSNLHWYQQKPGQPPKLLIYGTSNLASGVPDRFSGSGSGTDFTLTISSLQAEDVAVYYCQQWSSYPLTFGQGTKVEIKR
notes: Whole antibody expressed from pKANTEX3061HV0LV0 (human constant regions from the anti-CD10 chimeric antibody expression vector)
B3: MS705/HV2LV9 antibody (anti-CD10 CDR-grafted antibody obtained from the HV2LV9MS705 strain) (antibody, V domains shown)
VH: EVQLVESGGGVVQPGRSLRLSCAASGFTFSSFGMHWVRQAPEKGLEWVAYISGGSYTIYYADTVKGRFTISRDNSKNTLYLQMNSLRAEDTAVYYCASSYGNFWYFDVWGQGTTVTVSS
VL: DIVMTQSPDSLAVSLGERATIACSVSSSISSSNLHWYQQKPGQSPKPWIYGTSNLASGVPVRFSGSGSGTSYFLTISSLQAEDVATYYCQQWSSYPLTFGQGTKVEIKR
notes: Whole antibody expressed from pKANTEX3061HV2LV9 (human constant regions)

target: T1, CD10 (membrane fraction of the CD10-high-expressing human small cell lung cancer cell line SBC-3) (human, UniProt P08473 2-750); assay: ELISA; plate coated with membrane fraction of CD10-high SBC-3 cells; peroxidase-labelled anti-human IgG(H&L); OD415
T1 construct: whole, on cells; The antigen was a crude cell membrane fraction, not purified CD10 and not intact cells; also called CALLA; neutral endopeptidase
T1 sequence (P08473 2-750): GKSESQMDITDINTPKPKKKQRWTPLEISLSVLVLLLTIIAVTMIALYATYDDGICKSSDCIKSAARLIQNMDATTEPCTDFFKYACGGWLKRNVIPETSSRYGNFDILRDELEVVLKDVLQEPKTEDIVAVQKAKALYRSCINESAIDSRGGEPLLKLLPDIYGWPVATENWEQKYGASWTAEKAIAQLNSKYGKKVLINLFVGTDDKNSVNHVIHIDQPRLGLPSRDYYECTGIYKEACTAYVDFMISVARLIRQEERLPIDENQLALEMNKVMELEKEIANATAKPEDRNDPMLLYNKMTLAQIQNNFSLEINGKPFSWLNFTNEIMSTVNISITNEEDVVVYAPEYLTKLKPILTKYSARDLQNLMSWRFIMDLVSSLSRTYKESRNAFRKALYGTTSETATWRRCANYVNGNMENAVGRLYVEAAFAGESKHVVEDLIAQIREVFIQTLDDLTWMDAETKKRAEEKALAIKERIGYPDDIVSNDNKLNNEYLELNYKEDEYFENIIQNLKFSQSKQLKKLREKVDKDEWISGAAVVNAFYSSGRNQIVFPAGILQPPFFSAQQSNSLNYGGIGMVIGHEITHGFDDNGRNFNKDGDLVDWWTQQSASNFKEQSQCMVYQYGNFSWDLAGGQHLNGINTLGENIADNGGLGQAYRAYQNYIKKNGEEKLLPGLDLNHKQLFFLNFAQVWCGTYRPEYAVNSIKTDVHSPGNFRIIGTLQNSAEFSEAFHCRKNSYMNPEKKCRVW

Binding result, binds:
B1, B2, B3
